From patent publication US20250108137A1, “APTAMERS SPECIFIC TO EBV-ASSOCIATED MALIGNANCIES AND THEIR APPLICATIONS IN CANCER IMAGING AND THERAPIES” (priority 2022, published 2025)

Columns and labels:
EBV-positive C666-1 = experiment: Equilibrium dissociation constant on cells, FITC-tagged Apt-1194; assay type: binding; details: serial concentrations of FITC-tagged aptamer
Description: (§1) FIGS. 5A-5G. Characterization of Apt-2019 and Apt-1194. (FIG. 5A) Diagram showing the G-quadraplex structure that can be formed by G-rich aptamers. (FIGS. 5B-5C) Fluorescent enhancement assay (FEA) was used to detect G-quadraplex forming sequences. Both Apt-2019 and Apt-1194 could form into G-quadraplex in the presence of K+ or L+ ions and then light up the ThT ligands. […] (FIGS. 5E-5F) A serial concentrations of FITC-tagged Apt-2019 and Apt-1194 were bound with LMP1-overexpressing NPC43 and EBV-positive C666-1 respectively. Equilibrium dissociation constant (Kd) was then calculated. (FIG. 5G) Apt-2019 was allowed to bind with live NPC cells for 45 mins. Internalization of Apt-2019 was validated by Z-stack imaging of confocal microscope.
(§2) 10 μM aptamers or aptamer pools were dissolved in DBPS with 5 mM MgCl2 as stock and diluted with binding buffer (DBPS with 5 mM MgCl2, 0.1% BSA, […] and 0.45% glucose) into 200 nM, followed by heating at 95° C. to 5 mins and chilling on ice for 5 mins. Cells were trypsinized and incubated in the aptamer solution at 4° C. for 30-60 mins. After incubation, the cells were washed once by precooled binding buffer. At last, the samples were analyzed on BD flowcytometry. […] At last, the bead-aptamer complexes were washed 3 times with binding buffer and analyzed by BD flow cytometer.

[1] = Thioflavin T fluorescent enhancement assay for G-quadruplex formation; assay type: physicochemical; details: lithium cacodylate buffer or potassium phosphate buffer
Description: Thioflavin T (ThT) is kind of G4 ligand dye, and its fluorescent signal would increase after binding to G4 structures. So, it is widely used in detecting G4 structure. The Apt-2019 was stained by ThT with the existence of Lit or Kt. Circular dichroism (CD) spectra was used for determination of the subtype of G4 structure.
Both Apt-2019 and Apt-1194 are guanine-rich oligonucleotides (GROs) in which the G content are 43 and 41% respectively. GROs can form stable G-quadruplex structures because four guanine bases form a square planar structure called a G-quartet through Hoogsteen base pairing, and these G-quartets spontaneously assemble into four-stranded helical structures termed G-quadruplex (G4) (FIG. 5A) (20). It is well known that G4-forming oligonucleotides are relatively stable against nuclease degradation (21). Therefore, we checked if Apt-2019 and Apt-1194 can form G4 using Thioflavin T (ThT) as a fluorescence light-up probe for G4 formation (22). […] The higher serum stability of Apt-2019 and Apt-1194 than random non-GC rich aptamers (FIG. 5D) can thus be explained by their stable G4 structure. To further characterize these novel NPC-targeting aptamers, we have measured their equilibrium dissociation constant (Kd).

[2] = tested on: EBV-positive NPC cell lines (NPC43, C666-1 and C17); experiment: Binding to a panel of EBV-positive and EBV-negative cell lines; details: EBV-positive NPC43, C666-1, C17; EBV-negative A549, NP460
Procedure: (§3) 10 μM aptamers or aptamer pools were dissolved in DBPS with 5 mM MgCl2 as stock and diluted with binding buffer (DBPS with 5 mM MgCl2, 0.1% BSA, […] and 0.45% glucose) into 200 nM, followed by heating at 95° C. to 5 mins and chilling on ice for 5 mins. Cells were trypsinized and incubated in the aptamer solution at 4° C. for 30-60 mins. After incubation, the cells were washed once by precooled binding buffer. At last, the samples were analyzed on BD flowcytometry. For flow cytometric analysis of bead assay, the NTA beads were incubated with CNBP-his or MTDH-his containing cell lysates or control lysates for 1 hr at 4° C. and then washed with binding buffer for 3 times. After that, the beads were incubated with FAM-Apt-2019 or FAM-Apt-1194 (200 nM) for 30 mins at 4° C. At last, the bead-aptamer complexes were washed 3 times with binding buffer and analyzed by BD flow cytometer.
(§4) By binding of Apt-1194 & Apt-1798 with a panel of EBV-positive NPC cell lines (NPC43, C666-1 and C17), EBV-negative lung cancer cell line (A549) and nasopharyngcal cell line (NP460), the specificity of Apt-1194 to EBV-positive cells was confirmed (FIG. 4B). Proteins from NPC43 lysate were pulled down by Apt-1194. […] It has been reported that MTDH is a prognosis marker for NPC (19). […] Knockdown of MTDH could suppress proliferation and migration capability in NPC cells (FIG. 4F)

MTDH = molecular target: T1, MTDH (Homo sapiens, UniProt Q86UE4); experiment: Pull-down from NPC43 lysate with mass spectrometry and western blot; assay type: binding; details: mass spectrometry, validated by Western blot
T1 construct: endogenous in cells; host or cells: EBV-positive NPC43 cells
T1 sequence (Q86UE4 1-582): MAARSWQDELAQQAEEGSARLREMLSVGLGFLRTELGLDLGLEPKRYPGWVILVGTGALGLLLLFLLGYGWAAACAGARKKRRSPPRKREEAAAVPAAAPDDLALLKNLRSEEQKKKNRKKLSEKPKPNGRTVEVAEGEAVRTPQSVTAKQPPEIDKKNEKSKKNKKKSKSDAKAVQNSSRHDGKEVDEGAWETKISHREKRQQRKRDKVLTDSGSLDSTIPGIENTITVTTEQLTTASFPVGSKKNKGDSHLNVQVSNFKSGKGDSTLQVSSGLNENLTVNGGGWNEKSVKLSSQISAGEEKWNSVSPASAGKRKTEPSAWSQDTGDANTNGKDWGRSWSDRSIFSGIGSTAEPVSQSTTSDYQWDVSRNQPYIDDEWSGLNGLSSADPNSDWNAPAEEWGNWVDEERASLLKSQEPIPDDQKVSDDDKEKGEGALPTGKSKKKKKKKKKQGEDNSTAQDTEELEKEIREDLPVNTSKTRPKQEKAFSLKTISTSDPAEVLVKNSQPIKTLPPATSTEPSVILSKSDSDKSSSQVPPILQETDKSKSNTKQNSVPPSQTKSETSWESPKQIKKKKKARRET
Procedure: (§5) The pulldown assay was performed by following the protocol from Shang Guan's lab. Then the protein samples were separated in PAGE gels and stained by pierce silver staining kit from Life Technology. The specific bands around 20 kDa or 70 kDa were sent to Biotech Company (Bei Jing) for mass spectrometry analysis.
as §4

[3] = compared with random aptamer sequences
[4] = tested on: EBV-positive C666-1 tumors; experiment: In vivo fluorescence imaging of biodistribution, C666-1 tumors; set-up: species or system mice; details: fluorescence-tagged, tail vein injected, IVIS Spectrum imager
Description: Fluorescence-tagged Apt-2019 and Apt-1194 were tail vein injected in mice bearing C15 tumors (an NPC xenograft with high expression of LMP1 (18)) and EBV-positive C666-1 tumors respectively. […] Tumors and organs (e.g., lungs and spleen) were taken out for fluorescence imaging (IVIS Spectrum imager).

CNBP [5] = molecular target: T2, CNBP (Homo sapiens, UniProt P62633); experiment: Flow analysis of CNBP-tagged and non-tagged beads with Apt-2019-FAM; assay type: binding; details: Apt-2019-FAM 200 nM; CNBP-tagged vs non-tagged beads
T2 construct: endogenous in cells; host or cells: LMP1-expressing NPC43(noEBV) cell lysate
T2 sequence (P62633 whole entry): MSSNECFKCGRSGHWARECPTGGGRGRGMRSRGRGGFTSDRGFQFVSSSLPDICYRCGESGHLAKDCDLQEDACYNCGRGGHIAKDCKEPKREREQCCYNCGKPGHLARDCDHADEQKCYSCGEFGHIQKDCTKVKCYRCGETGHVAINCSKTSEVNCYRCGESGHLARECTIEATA
Procedure: as §3
(§6) To identify the target surface protein which was bound by the Apt-2019 on LMP1-expressing cells, we have performed pull-down assay using Apt-2019. […] The proteins from this band were purified from the gel and subjected for protein identification by tandem mass spectrometry (MS/MS). […] To validate CNBP as the target of Apt-2019, the pull-down proteins from Apt-2019 and Apt-library in LMP1-cell lysates were blotted by the antibody against CNBP (FIG. 2A). […]

[6] = tested on: LMP1-overexpressing NPC43; experiment: Equilibrium dissociation constant on cells, FITC-tagged Apt-2019; assay type: binding; details: serial concentrations of FITC-tagged aptamer
Description: as §1, §2

CNBP-knockout cells = experiment: Aptamer binding to CNBP-knockout vs parental NPC cells
Procedure: as §3, §6

CNBP [7] = molecular target: T2, CNBP; experiment: Pull-down assay with mass spectrometry and western blot (LMP1-cell lysates); assay type: binding; details: band around 20 kd vs Apt-library; MS/MS; blotted with CNBP antibody
Procedure: as §5
To identify the target surface protein which was bound by the Apt-2019 on LMP1-expressing cells, we have performed pull-down assay using Apt-2019. […] The proteins from this band were purified from the gel and subjected for protein identification by tandem mass spectrometry (MS/MS). […] To validate CNBP as the target of Apt-2019, the pull-down proteins from Apt-2019 and Apt-library in LMP1-cell lysates were blotted by the antibody against CNBP (FIG. 2A). The docking model between the Apt-2019 and CNBP was also predicted by HDOCK (sec worldwide website: hdock.phys.hust.edu.cn/) (FIG. 2A). Another validation assay was done by flow analysis of CNBP-tagged and non-tagged beads after binding with Apt-2019-FAM (FIG. 2B). […] Moreover, Apt-2019-bounded CNBP was specifically expressed on the cell surface, as both the fluorescent signals of CNBP and Apt-2019 were localized on the ‘non-permeabilized’ NPC43-LMP1 cells. (FIG. 3A). […] All these confirmed Apt-2019 could bind to the cell surface CNBP on NPC cells. […]

[8] = tested on: C15 tumors (an NPC xenograft with high expression of LMP1); experiment: In vivo fluorescence imaging of biodistribution, C15 xenograft; set-up: species or system mice; details: fluorescence-tagged, tail vein injected, IVIS Spectrum imager
Description: Fluorescence-tagged Apt-2019 and Apt-1194 were tail vein injected in mice bearing C15 tumors (an NPC xenograft with high expression of LMP1 (18)) and EBV-positive C666-1 tumors respectively. We have also generated control aptamers to Apt-2019 and Apt-1194 by replacing all the G to C, so as to destroy the G4-forming ability. The resulting control aptamers are named as Apt-NG^2019 (SEQ ID NO: 4; Apt-NG^2019 (14-63) Aptamer: […]) and Apt-NG^1194 (SEQ ID NO:5; Apt-NG^1194 (1-58) Aptamer: […] GGCC). Tumors and organs (e.g., lungs and spleen) were taken out for fluorescence imaging (IVIS Spectrum imager).

[9] = tested on: LMP1-expressing NPC43 cells; experiment: Internalization by Z-stack confocal microscopy; assay type: cell-based; details: live cells, 45 mins
Description: as §1
In live cell imaging, the NPC43-LMP1+ and NPC43-LMP1− cells were seeded in 3.5 cm confocal dishes 24 hrs before. The cells were washed with PBS 2 times and then incubated with 200 nM aptamers in binding buffer for 30 mins and washed with DPBS twice after. The Zeiss LSM880 was used for taking confocal images. In immunofluorescence and aptamer co-staining, the cells were fixed by 4% PFA for 15 mins and then blocked with 3% BSA for 1 hr. CNBP antibody was incubated with the cells in 1:100 dilution (Abclonal, 15110) for 1 hr followed with anti-Rabbit Alex-555 antibody (1:500) for 1 h. After washing for 3 times, FAM-Apt-2019 was added and incubated for 1 h.

[10] = tested on: LMP1-transfected cell lines including HONE1, C17 and NP460; experiment: Binding to other LMP1-transfected cell lines vs vector control; details: compared to the vector control cells
Procedure: as §3
(§7) Identification of Apt-2019 which preferentially binds to LMP1-expressing cells. […] Flow cytometric analyses have shown the gradual increase of fluorescence signals on NPC43^noEBV-LMP1 cells bound with the FAM-tagged aptamers enriched from round 9, 11 and 12 Cell-SELEX (FIG. 1A), indicating a successful enrichment process. […] 8 sequences were selected out based on the sequence similarity and abundance of sequence reads. […]

NPC43^noEBV-LMP1 cells = experiment: Flow cytometry and confocal binding to LMP1-expressing cells vs vector control; details: among 8 selected aptamers; flow cytometric analysis and confocal microscopy; FAM-tagged
Procedure: as §3, with “cytometer. […]” for “cytometer.”
as §7

B1: Apt-1194: DNA aptamer, SEQ ID NO: 2, from Cell-SELEX and in vivo-SELEX on EBV-positive NPC43; binds MTDH (nucleic acid)
DNA: ATCCAGAGTGACGCAGCACCGAGCGAGTTGGTTTGCTGCGGTGGGCAGAGAGGTGGGGTGGACACGGTGGCTTAGT
modifications: DNA, backbone and methylation of C not given here; further chemistry not fully specified
equilibrium dissociation constant (Kd) (EBV-positive C666-1): nanomolar range
G-quadruplex (G4) formation, ThT light-up [1]: could fold into G4
specific binding to EBV-positive vs EBV-negative cell lines [2]: could bind specifically to EBV-positive cell lines but not to EBV-negative cell lines
target identified by pull-down (MTDH): MTDH was found to be the target
serum stability [3]: much higher serum stability than random aptamer sequences
accumulation in the tumors [4]: accumulation

B2: Apt-2019: DNA aptamer, SEQ ID NO: 1, from Cell-SELEX on LMP1-expressing NPC43 cells; binds CNBP (nucleic acid)
DNA: ATCCAGAGTGACGCAGCAGAATGGGTGGGATTCCTCAGAGGGGTTGGTGAGTTTGTGATGGACACGGTGGCTTAGT
modifications: DNA, backbone and methylation of C not given here; further chemistry not fully specified
binding to CNBP-tagged beads (CNBP [5]): could specifically bind to the CNBP-tagged beads
G-quadruplex (G4) formation, ThT light-up [1]: could fold into G4
equilibrium dissociation constant (Kd) [6]: nanomolar range
binding after CRISPR-knockout of CNBP (CNBP-knockout cells): inhibited the binding
target identified by pull-down (CNBP [7]): CNBP was found to be the potential target
serum stability [3]: much higher serum stability than random aptamer sequences
accumulation in the tumors [8]: accumulation
internalization into cells [9]: could be internalized
specific binding ability in LMP1-transfected cell lines [10]: could preferentially bind to all these LMP1-overexpressing cells
preferential binding to LMP1-expressing cells (NPC43^noEBV-LMP1 cells): highest preferential binding to LMP1-expressing cells

B3: Apt-1798: DNA aptamer, SEQ ID NO: 3, top enriched sequence targeting EBV-positive cells (nucleic acid)
DNA: ATCCAGAGTGACGCAGCAATCGTGGACCTGGCTGTGGTTTGCTGAGGTGGGCGCCAATTGGACACGGTGGCTTAGT
modifications: DNA, backbone and methylation of C not given here
specific binding to EBV-positive vs EBV-negative cell lines [2]: could bind specifically to EBV-positive cell lines but not to EBV-negative cell lines
